Source: publication PMC6082628

T1: Act1 SEFIR (mouse, UniProt Q8N7N6 391-537)
T1 sequence: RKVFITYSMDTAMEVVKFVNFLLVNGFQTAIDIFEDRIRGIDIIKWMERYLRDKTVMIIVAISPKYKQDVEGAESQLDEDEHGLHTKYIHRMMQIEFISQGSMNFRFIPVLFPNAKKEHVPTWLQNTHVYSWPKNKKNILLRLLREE


Assays:
Act1 SEFIR [1] = target: T1, Act1 SEFIR; test: EMSA
Act1 SEFIR [2] = target: T1, Act1 SEFIR; test: competition
Act1 SEFIR [3] = target: T1, Act1 SEFIR; test: competition; remark: listed apart in the source
Act1 SEFIR [4] = target: T1, Act1 SEFIR; test: EMSA; remark: listed apart in the source

| Binder | binding result (Act1 SEFIR [1]) | other results |
| --- | --- | --- |
| CCUUGGACAUUUUGUGUCUAGUUGGUAAAACAUAAUGCCCUUUUACA (ssRNA) [SBE mutant C] | no binding | – |
| CCUUGGACAUUUUGUGUCUAGUUGGUAAAACAUAAUGCCCUUUUACA (ssRNA, 2'-O-methyl on the first three residues at 5' and 3' ends (as ordered)) [SBE mutant C aptamer (competitor)] | – | binding result (Act1 SEFIR [2]): no binding |
| CCUUGGACAUUUUGUGUCUAGUUGGUAGGGCAUAAUGCCCUUUUACA (structured_RNA, 2'-O-methyl on the first three residues at 5' and 3' ends (as ordered)) [SBE WT aptamer (competitor)] | – | binding result (Act1 SEFIR [3]): binds |
| CCUUGGACAUUUUGUGUCUAGUUGGUAGGGCAUAAUGGGGUUUUACA (ssRNA) [Stem-loop C CCC to GGG] | no binding | – |
| CCUUGGACAUUUUGUGUCUAGUUGGUACCCCAUAAUGGGGUUUUACA (structured_RNA) [SBE stem swap] | – | binding result (Act1 SEFIR [4]): binds |
| Cxcl1 220-II (structured_RNA) RNA: GUUGGUAGGGCAUAAUGCCCUUUUACAUUCUUUAACCCUGUUUCUCCUGGUCUCGUCUCGCUCGGGACAGAGACGUUCAAAGGACUGUUACAAAUGAAGUAAAAAUAAAAG | binds | – |
